Conditions in all cases: both partners purified
Assay [1] deals with T1, ARPC1 of S. pombe Arp2/3 complex (S. pombe, UniProt P78774 1-377).
T1 construct: ARPC1 subunit of S. pombe Arp2/3 complex; Seen within the whole complex in the branch junction
T1 sequence: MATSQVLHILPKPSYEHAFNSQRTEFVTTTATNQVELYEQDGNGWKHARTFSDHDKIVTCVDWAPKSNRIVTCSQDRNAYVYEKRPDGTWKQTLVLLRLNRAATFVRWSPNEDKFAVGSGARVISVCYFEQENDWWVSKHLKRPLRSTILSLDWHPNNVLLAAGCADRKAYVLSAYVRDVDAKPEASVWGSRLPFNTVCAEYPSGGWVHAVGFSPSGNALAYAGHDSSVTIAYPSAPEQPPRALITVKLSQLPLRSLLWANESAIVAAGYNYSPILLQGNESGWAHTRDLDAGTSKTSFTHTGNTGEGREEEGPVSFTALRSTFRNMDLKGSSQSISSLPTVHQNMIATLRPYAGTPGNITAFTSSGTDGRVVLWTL
The experiment in a line: cryo-EM structure; ADP-BeFx state: branch junctions prepared as for the ADP state, with 2 mM BeFx (2 mM BeSO4 and 10 mM NaF) added during daughter filament formation; ADP-BeFx on Arp3, ATP on Arp2; 3.2 Å.

The target of assay [2] is T2, Arp2 of S. pombe Arp2/3 complex (S. pombe, UniProt Q9UUJ1 1-390).
T2 construct: Arp2 subunit of S. pombe Arp2/3 complex; Seen within the whole complex in the branch junction
The assay is described as above.

Assay [3] concerns the target T2, Arp2 of S. pombe Arp2/3 complex. The experiment in a line: cryo-EM structure; ADP state: branch junctions of capped rabbit actin filaments with GCN4-VCA-activated S. pombe Arp2/3 complex, aged ~90 min; ADP on actin and Arp3, ATP on Arp2; 2.7 Å.

T2 sequence (Q9UUJ1 whole entry, one chain of several): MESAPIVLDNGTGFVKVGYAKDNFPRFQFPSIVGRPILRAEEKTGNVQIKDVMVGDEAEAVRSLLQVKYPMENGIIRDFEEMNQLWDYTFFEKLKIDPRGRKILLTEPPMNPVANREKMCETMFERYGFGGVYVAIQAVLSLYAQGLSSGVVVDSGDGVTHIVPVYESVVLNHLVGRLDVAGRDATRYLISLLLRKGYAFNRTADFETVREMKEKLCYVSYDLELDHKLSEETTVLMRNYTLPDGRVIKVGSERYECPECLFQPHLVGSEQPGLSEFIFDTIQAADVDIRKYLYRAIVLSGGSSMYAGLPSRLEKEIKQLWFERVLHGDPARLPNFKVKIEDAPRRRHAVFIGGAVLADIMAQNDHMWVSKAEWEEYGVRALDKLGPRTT

B1: ARPC2 of S. pombe Arp2/3 complex (natural protein)
chain: MLSLDYNNIFIYELLTERFSSENPSSIDQVVTDFDGVTFHISTPEEKTKILISLSMKCYPELVNYGTLDLLKQIYGAYVHEPEMGYNFSILIDLQQLPATDEEKEQLAMSISMLKRNVLAAPFHRAFTKQAELADLARKDPENAPMLDKQATSQELMAIHYRDEETIVLWPEHDRVTVVFSTKFREETDRIFGKVFLQEFVDARRRPAIQTAPQVLFSYRDPPLEIRDIQGIQKGDDFGFVTFVLFERHFTPQNREDCISHIQVFRNTLHFHIKASKAYMHQRMRKRVADFQKVLNRAKPDVELERKTATGRSFVRA
notes: ARPC2 subunit of S. pombe Arp2/3 complex; Seen within the whole complex in the branch junction
Turning to B1, the binding result in assay [1] and in assay [2] was “binds” each time.

B2: ARPC3 of S. pombe Arp2/3 complex (natural protein)
chain: MPAYHSSFLSLTDVPTTGNIAMLPLKTKFRGPAYPADESQMDIIDECIGLFRANCFFRNFEIKGPADRTLIYGTLFISECLGRVNGLNYRDAERQLNSLALENFSIPGSAGFPLNALYAPPLSPQDAEIMRTYLTQFRQELAYRLLSHVYATEKDHPSKWWTCFSKRRFMNKAL
notes: ARPC3 subunit of S. pombe Arp2/3 complex; Seen within the whole complex in the branch junction
Consider B2, for which the binding result in assay [3] was “binds”.

The record behind these values is article PMC10918085, “Cryo-EM structures reveal how phosphate release from Arp3 weakens actin filament branches formed by Arp2/3 complex” (Nature Communications, 2024).
